Measured values reported in patent publication US20090208512A1.

Molecular target: human recombinant Factor VIII (human) (UniProt P00451)
Test: cell-based or functional assay

Sequence of UniProt P00451 (P00451 20-2351): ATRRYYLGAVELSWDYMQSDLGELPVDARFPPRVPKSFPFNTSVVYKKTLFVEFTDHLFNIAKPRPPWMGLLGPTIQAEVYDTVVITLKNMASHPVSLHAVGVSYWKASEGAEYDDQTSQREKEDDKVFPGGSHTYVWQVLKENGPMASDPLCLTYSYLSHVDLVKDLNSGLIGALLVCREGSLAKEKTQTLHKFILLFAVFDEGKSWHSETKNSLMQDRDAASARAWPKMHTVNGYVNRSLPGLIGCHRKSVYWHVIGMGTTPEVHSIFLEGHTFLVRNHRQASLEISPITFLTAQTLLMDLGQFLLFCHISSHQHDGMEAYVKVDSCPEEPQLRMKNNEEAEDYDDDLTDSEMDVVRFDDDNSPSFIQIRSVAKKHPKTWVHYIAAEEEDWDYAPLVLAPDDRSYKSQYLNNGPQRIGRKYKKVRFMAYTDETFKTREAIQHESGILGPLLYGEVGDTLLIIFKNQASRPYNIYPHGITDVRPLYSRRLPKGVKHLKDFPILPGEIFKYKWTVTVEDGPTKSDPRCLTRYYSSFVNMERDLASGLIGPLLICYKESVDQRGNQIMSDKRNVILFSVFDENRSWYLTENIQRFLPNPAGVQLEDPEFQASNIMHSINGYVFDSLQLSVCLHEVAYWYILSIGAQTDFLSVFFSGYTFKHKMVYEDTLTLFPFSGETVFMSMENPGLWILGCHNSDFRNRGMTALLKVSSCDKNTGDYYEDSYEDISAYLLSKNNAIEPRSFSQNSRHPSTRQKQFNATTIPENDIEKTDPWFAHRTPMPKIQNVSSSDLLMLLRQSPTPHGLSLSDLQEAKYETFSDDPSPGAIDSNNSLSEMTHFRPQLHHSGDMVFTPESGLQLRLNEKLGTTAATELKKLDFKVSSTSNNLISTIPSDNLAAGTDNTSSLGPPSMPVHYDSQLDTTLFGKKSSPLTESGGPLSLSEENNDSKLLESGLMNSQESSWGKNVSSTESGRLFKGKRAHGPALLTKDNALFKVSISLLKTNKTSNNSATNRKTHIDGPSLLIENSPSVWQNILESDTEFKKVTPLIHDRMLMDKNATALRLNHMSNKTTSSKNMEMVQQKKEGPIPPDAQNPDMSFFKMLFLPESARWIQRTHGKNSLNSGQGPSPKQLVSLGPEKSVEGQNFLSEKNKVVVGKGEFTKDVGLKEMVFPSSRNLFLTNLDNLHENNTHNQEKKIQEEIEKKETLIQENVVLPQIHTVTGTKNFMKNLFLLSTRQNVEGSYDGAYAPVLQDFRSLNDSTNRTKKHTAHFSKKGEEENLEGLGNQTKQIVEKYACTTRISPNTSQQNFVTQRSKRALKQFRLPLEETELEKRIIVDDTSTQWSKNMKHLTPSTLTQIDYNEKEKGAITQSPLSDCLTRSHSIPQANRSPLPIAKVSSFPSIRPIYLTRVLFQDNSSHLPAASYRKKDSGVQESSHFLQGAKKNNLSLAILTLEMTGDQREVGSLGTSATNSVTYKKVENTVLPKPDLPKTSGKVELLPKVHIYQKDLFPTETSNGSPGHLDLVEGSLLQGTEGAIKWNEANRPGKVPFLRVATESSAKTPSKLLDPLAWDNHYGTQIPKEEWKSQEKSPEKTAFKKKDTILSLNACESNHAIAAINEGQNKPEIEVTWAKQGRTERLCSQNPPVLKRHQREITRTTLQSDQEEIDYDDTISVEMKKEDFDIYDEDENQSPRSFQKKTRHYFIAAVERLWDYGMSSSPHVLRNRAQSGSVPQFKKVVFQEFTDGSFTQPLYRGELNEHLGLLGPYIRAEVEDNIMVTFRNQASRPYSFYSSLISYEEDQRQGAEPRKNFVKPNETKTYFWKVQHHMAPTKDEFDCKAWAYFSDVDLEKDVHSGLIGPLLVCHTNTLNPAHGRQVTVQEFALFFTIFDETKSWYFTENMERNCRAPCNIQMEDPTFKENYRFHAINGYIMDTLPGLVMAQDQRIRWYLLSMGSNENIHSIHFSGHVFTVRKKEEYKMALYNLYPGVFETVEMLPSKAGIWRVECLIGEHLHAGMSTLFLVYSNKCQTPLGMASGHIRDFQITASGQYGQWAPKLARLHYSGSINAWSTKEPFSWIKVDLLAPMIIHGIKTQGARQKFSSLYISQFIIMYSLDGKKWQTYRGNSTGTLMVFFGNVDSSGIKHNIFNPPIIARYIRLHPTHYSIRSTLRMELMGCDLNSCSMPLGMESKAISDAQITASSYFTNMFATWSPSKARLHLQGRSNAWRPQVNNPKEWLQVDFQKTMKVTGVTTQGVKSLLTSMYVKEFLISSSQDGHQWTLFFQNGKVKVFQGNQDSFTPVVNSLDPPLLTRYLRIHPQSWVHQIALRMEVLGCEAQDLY

von Willebrand Factor (from UniProt P04275 764-2813)
inhibition of hydrolysis of Factor VIII by anti-Factor VIII IgG: 36.9%
